“Also recorded” adds a separate entry of the source.
Target: T1, rCoa-C binding to Fg (Homo sapiens, UniProt P02671+P02675+P02679)
T1 construct: full-length human Fibrinogen (diluted in PBS, Enzyme research); purchased Enzyme research; host or cells: Coa probe made in E. coli BL21
T1 sequence (P02671 20-629 limits assumed): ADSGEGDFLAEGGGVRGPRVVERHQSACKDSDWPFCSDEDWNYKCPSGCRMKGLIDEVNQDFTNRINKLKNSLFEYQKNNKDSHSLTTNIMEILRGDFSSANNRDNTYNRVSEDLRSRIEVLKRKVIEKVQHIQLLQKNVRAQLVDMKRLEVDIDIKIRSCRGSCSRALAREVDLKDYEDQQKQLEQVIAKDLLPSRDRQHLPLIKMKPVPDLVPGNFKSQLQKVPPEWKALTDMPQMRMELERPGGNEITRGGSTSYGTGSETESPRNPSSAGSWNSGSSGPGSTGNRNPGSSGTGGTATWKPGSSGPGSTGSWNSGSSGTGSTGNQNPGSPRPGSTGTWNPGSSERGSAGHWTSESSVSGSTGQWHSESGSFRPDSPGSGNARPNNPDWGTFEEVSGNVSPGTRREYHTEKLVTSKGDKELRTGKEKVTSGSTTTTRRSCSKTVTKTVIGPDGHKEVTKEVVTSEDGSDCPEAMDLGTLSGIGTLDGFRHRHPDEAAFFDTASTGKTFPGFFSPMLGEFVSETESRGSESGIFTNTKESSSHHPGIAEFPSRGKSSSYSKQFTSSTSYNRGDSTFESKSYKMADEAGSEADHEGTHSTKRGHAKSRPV
T1 sequence (P02675 31-491): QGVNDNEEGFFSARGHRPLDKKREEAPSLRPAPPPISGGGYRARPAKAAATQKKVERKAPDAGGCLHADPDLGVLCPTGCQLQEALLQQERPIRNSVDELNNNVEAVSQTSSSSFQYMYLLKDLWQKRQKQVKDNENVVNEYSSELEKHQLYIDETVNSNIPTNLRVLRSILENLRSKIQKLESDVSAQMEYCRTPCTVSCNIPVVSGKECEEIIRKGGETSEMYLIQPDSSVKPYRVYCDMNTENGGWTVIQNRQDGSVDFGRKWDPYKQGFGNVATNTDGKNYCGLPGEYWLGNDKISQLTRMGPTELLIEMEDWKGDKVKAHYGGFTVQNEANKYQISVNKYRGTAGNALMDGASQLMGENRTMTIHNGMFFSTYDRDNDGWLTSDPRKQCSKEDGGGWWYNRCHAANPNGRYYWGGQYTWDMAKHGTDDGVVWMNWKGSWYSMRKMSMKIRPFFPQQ
T1 sequence (P02679 27-453): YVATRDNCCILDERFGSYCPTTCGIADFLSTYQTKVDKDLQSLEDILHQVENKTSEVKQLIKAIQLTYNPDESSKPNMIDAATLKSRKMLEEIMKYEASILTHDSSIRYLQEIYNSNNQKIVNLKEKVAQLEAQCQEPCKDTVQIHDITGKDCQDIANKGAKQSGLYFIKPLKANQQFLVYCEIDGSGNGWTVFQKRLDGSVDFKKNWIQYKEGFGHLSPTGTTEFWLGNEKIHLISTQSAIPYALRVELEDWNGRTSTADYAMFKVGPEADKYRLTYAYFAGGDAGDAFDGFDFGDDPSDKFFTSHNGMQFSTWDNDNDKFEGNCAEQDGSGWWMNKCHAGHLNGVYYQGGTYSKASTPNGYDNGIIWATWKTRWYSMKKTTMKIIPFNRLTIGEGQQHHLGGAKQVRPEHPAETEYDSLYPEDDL
Test: Competition ELISA, peptide inhibition of rCoa-C (Coa 311-636) binding to Fg
Conditions: increasing concentrations of peptides; 4 nM GST fusion protein
Procedure: The residues in Coa-RI important for fibrinogen binding. FIG. 12A is a panel of coa-RI variant peptides were synthesized where each residue in the sequence is individually replaced with Ala (or Ser when the native a.a. is Ala). […] Wells were coated with 0.25 μg/well Fg. Labels -1, -2, -3, -4, -5, -6, -7, -8, -9, -10, -11, -12, -13, -14, -15, -16, -17, -18, -19, -20, -21, -22, -23, -24, -25, -26, -27 refer to Coa-RI-1, Coa-RI-2, Coa-RI-3, Coa-RI-4, Coa-RI-5, Coa-RI-6, Coa-RI-7, Coa-RI-8, Coa-RI-9, Coa-RI-10, Coa-RI-11, Coa-RI-12, Coa-RI-13, Coa-RI-14, Coa-RI-15, Coa-RI-16, Coa-RI-17, Coa-RI-18, Coa-RI-19, Coa-RI-20, Coa-RI-21, Coa-RI-22, Coa-RI-23, Coa-RI-24, Coa-RI-25, Coa-RI-26, Coa-RI-27, respectively. FIG. 12C is a comparison of amino acid sequence of Efb-O with Coa-RI. FIG. 12D is a Fg-binding register of tandem repeats in Coa. Bold letters denote the residues that are important for Fg binding. Binding of a fixed concentration of rCoa-C (2 nM) to immobilized Fg was determined in the presence of a fixed concentration of these peptides (50 uM) (FIG. 12B). […]
FIG. 13A is a schematic presentation of Coa peptides. […] The Fg binding activities of these peptides were then investigated in a competition ELISA where the binding of rCoa-C to Fg coated microtiter wells were determined in the presence of increasing concentrations of peptide (FIG. 13B). […]

sCoa-RI: synthetic peptide, first 27 residues of repeat region, Coa 506-532 (ETNAYNVTTHANGQVSYGARPTYKKPS)
inhibition of rCoa-C binding to fibrinogen by overlapping Coa R peptides: some inhibitory activity; also recorded: most potent inhibitor

— patent publication US11407819B2, “Compositions and use of a fibrinogen binding motif present in EFB and COA for therapeutics and vaccines against Staphylococcus aureus” (priority 2013, dated 2022)
